Test results published in patent publication US6797811.

Tests used:
FLAG-tagged 88C receptor [1] = molecular target: T1, FLAG-tagged 88C receptor (human, UniProt P51681 1-352); assay: cell-based or functional assay
T1 sequence: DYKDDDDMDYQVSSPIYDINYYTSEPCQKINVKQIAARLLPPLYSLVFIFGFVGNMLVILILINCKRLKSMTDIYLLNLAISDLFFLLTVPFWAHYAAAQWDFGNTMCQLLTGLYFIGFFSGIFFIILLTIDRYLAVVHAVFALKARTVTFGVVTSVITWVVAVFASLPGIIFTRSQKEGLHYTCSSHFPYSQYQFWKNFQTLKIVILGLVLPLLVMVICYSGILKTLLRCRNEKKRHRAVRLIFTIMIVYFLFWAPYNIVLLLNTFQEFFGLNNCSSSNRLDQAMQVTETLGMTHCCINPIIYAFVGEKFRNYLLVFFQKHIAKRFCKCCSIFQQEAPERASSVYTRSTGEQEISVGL

FLAG-tagged 88C receptor [2] = molecular target: T1, FLAG-tagged 88C receptor; assay: equilibrium binding of 125I-MIP-1β to HEK-293 cells expressing FLAG-tagged 88C, Scatchard analysis
Description: (§1) Another assay for receptor interaction with chemokines was a modification of the binding assay described by Ernst et al. *J. Immunol.* 152:3541–3549 (1994). MIP-1β as labeled using the Bolton and Hunter reagent (di-iodide, NEN, Wilmington, Del.), according to the manufacturer's instructions. Unconjugated iodide was separated from labeled protein by elution using a PD-10 column (Pharmacia) equilibrated with PBS and BSA (1% w/v). The specific activity was typically 2200 Ci/mmole. Equilibrium binding was performed by adding ^125I-labeled ligand with or without a 100-fold excess of unlabeled ligand, to 5×10^5 HEK-293 cells transfected with 88C tagged with the FLAG epitope in polypropylene tubes in a total volume of 300 µl (50 mM HEPES pH 7.4, 1 mM CaCl_2, MgCl_2, 0.5% BSA) and incubating for 90 minutes at 27° C. with shaking at 150 rpm. […] After washing, the filters were removed and bound ligand was quantitated by counting gamma emissions. Ligand binding by competition with unlabeled ligand was determined by incubation of 5×10^5 transfected cells (as above) with 1.5 nM of radiolabeled ligand and the indicated concentrations of unlabeled ligand. The samples were collected, washed and counted as above. The data was analyzed using the curve-fitting program Prism (GraphPad Inc., San Diego, Calif.) and the iterative non-linear regression program, LIGAND (PM220).

FLAG-tagged 88C receptor [3] = molecular target: T1, FLAG-tagged 88C receptor; assay: competition of unlabelled ligand with 1.5 nM 125I-MIP-1β on HEK-293 cells expressing FLAG-tagged 88C
Description: as §1

EC50 of inositol phosphate formation (phospholipase C assay), COS-7 cells co-transfected with Gqi5 (FLAG-tagged 88C receptor [1]): 6 nM | Kd (FLAG-tagged 88C receptor [2]): 1.6 nM | IC50 (FLAG-tagged 88C receptor [3]): 7.4 nM
B1: MIP-1β (ligand, UniProt P13236 24-92, looked up)
chain: APMGSDPPTACCFSYTARKLPRNFVVDYYETSSLCSQPAVVFQTKRSKQVCADPSESWVQEYVYDLELN
notes: also called MIP-1beta; radiolabeled MIP-1β
